Experimental data as given in US20120172293A1 (Takeda / Millennium, published 2012).
Non-standard residues stand in square brackets, D forms with d. No end group written: not given here. tBuAla = CC(C)(C)C[C@H](N)C(=O)O; Cha = N[C@@H](CC1CCCCC1)C(=O)O; hLeu = CC(C)CC[C@H](N)C(=O)O; 4Amb = NCc1ccc(C(=O)O)cc1; Aib = CC(C)(N)C(=O)O

Columns and labels:
human Y2 receptor [1] = target: T1, human Y2 receptor (human, UniProt P49146 1-381); assay: RBA: [125I]-PYY displacement, hY2R/CHO membranes
T1 construct: whole, on cells; used as membrane fraction of hY2R/CHO cells; also called human NPY2R; hY2R
T1 sequence (looked up): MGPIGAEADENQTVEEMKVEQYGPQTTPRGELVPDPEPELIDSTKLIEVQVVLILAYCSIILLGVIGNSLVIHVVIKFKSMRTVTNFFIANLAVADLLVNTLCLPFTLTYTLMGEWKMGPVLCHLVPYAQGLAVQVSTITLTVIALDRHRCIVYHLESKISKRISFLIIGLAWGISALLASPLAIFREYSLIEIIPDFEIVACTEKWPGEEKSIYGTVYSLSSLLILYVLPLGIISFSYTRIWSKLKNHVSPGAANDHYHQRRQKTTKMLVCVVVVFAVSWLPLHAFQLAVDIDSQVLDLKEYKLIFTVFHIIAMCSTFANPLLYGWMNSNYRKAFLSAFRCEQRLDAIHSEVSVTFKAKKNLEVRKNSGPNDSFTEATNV
Outline: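 Bound radioligand was collected by filtration on PEI-treated GF/C filters, washed with Tris/MgCl₂/NaCl/CHAPS buffer pH 7.4, and counted by scintillation; IC₅₀ values were calculated.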

human Y2 receptor [2] = target: T1, human Y2 receptor; assay: cell-based or functional assay

B1: 4-Aminomethylbenzoyl-[Ala26, Ile28,31, Tyr30]-PYY(25-36) (peptide)
peptide: [4Amb]RAYINYITRQRY-NH2
modifications: N-terminus assumed
SMILES: CC[C@H](C)[C@H](NC(=O)[C@H](Cc1ccc(O)cc1)NC(=O)[C@H](C)NC(=O)[C@H](CCCNC(=N)N)NC(=O)c1ccc(CN)cc1)C(=O)N[C@@H](CC(N)=O)C(=O)N[C@@H](Cc1ccc(O)cc1)C(=O)N[C@H](C(=O)N[C@H](C(=O)N[C@@H](CCCNC(=N)N)C(=O)N[C@@H](CCC(N)=O)C(=O)N[C@@H](CCCNC(=N)N)C(=O)N[C@@H](Cc1ccc(O)cc1)C(N)=O)[C@@H](C)O)[C@@H](C)CC
notes: also called compound No. 57
IC50 Ratio (vs PYY(3-36)) (human Y2 receptor [1]): 2.8 ratio | GBA EC50 Ratio (vs PYY(3-36)), [35S]GTPγS (human Y2 receptor [2]): 1.9 ratio

B2: 4-Aminomethylbenzoyl-[Ala26, Ile31]-PYY(25-36) (peptide)
peptide: [4Amb]RAYLNLITRQRY-NH2
modifications: N-terminus assumed
SMILES: CC[C@H](C)[C@H](NC(=O)[C@H](CC(C)C)NC(=O)[C@H](CC(N)=O)NC(=O)[C@H](CC(C)C)NC(=O)[C@H](Cc1ccc(O)cc1)NC(=O)[C@H](C)NC(=O)[C@H](CCCNC(=N)N)NC(=O)c1ccc(CN)cc1)C(=O)N[C@H](C(=O)N[C@@H](CCCNC(=N)N)C(=O)N[C@@H](CCC(N)=O)C(=O)N[C@@H](CCCNC(=N)N)C(=O)N[C@@H](Cc1ccc(O)cc1)C(N)=O)[C@@H](C)O
notes: also called compound No. 20
IC50 Ratio (vs PYY(3-36)) (human Y2 receptor [1]): 2.8 ratio | GBA EC50 Ratio (vs PYY(3-36)), [35S]GTPγS (human Y2 receptor [2]): 2 ratio

B3: 4-Aminomethylbenzoyl-[Ala26, Trp27, Ile28,31]-PYY(25-36) (peptide)
peptide: [4Amb]RAWINLITRQRY-NH2
modifications: N-terminus assumed
SMILES: CC[C@H](C)[C@H](NC(=O)[C@H](Cc1c[nH]c2ccccc12)NC(=O)[C@H](C)NC(=O)[C@H](CCCNC(=N)N)NC(=O)c1ccc(CN)cc1)C(=O)N[C@@H](CC(N)=O)C(=O)N[C@@H](CC(C)C)C(=O)N[C@H](C(=O)N[C@H](C(=O)N[C@@H](CCCNC(=N)N)C(=O)N[C@@H](CCC(N)=O)C(=O)N[C@@H](CCCNC(=N)N)C(=O)N[C@@H](Cc1ccc(O)cc1)C(N)=O)[C@@H](C)O)[C@@H](C)CC
notes: also called compound No. 51
IC50 Ratio (vs PYY(3-36)) (human Y2 receptor [1]): 9.5 ratio | GBA EC50 Ratio (vs PYY(3-36)), [35S]GTPγS (human Y2 receptor [2]): 5.3 ratio

B4: 4-Aminomethylbenzoyl-[Arg26, Ile28,31]-PYY(25-36) (peptide)
peptide: [4Amb]RRYINLITRQRY-NH2
modifications: N-terminus assumed
SMILES: CC[C@H](C)[C@H](NC(=O)[C@H](Cc1ccc(O)cc1)NC(=O)[C@H](CCCNC(=N)N)NC(=O)[C@H](CCCNC(=N)N)NC(=O)c1ccc(CN)cc1)C(=O)N[C@@H](CC(N)=O)C(=O)N[C@@H](CC(C)C)C(=O)N[C@H](C(=O)N[C@H](C(=O)N[C@@H](CCCNC(=N)N)C(=O)N[C@@H](CCC(N)=O)C(=O)N[C@@H](CCCNC(=N)N)C(=O)N[C@@H](Cc1ccc(O)cc1)C(N)=O)[C@@H](C)O)[C@@H](C)CC
notes: also called compound No. 18
IC50 Ratio (vs PYY(3-36)) (human Y2 receptor [1]): 4 ratio | GBA EC50 Ratio (vs PYY(3-36)), [35S]GTPγS (human Y2 receptor [2]): 3 ratio

B5: 4-Aminomethylbenzoyl-[Ala26, Phe28, Ile31]-PYY(25-36) (peptide)
peptide: [4Amb]RAYFNLITRQRY-NH2
modifications: N-terminus assumed
SMILES: CC[C@H](C)[C@H](NC(=O)[C@H](CC(C)C)NC(=O)[C@H](CC(N)=O)NC(=O)[C@H](Cc1ccccc1)NC(=O)[C@H](Cc1ccc(O)cc1)NC(=O)[C@H](C)NC(=O)[C@H](CCCNC(=N)N)NC(=O)c1ccc(CN)cc1)C(=O)N[C@H](C(=O)N[C@@H](CCCNC(=N)N)C(=O)N[C@@H](CCC(N)=O)C(=O)N[C@@H](CCCNC(=N)N)C(=O)N[C@@H](Cc1ccc(O)cc1)C(N)=O)[C@@H](C)O
notes: also called compound No. 22
IC50 Ratio (vs PYY(3-36)) (human Y2 receptor [1]): 4.1 ratio | GBA EC50 Ratio (vs PYY(3-36)), [35S]GTPγS (human Y2 receptor [2]): 3.5 ratio

B6: 4-Aminomethylbenzoyl-[Pro26, Ile28,31]-PYY(25-36) (peptide)
peptide: [4Amb]RPYINLITRQRY-NH2
modifications: N-terminus assumed
SMILES: CC[C@H](C)[C@H](NC(=O)[C@H](Cc1ccc(O)cc1)NC(=O)[C@@H]1CCCN1C(=O)[C@H](CCCNC(=N)N)NC(=O)c1ccc(CN)cc1)C(=O)N[C@@H](CC(N)=O)C(=O)N[C@@H](CC(C)C)C(=O)N[C@H](C(=O)N[C@H](C(=O)N[C@@H](CCCNC(=N)N)C(=O)N[C@@H](CCC(N)=O)C(=O)N[C@@H](CCCNC(=N)N)C(=O)N[C@@H](Cc1ccc(O)cc1)C(N)=O)[C@@H](C)O)[C@@H](C)CC
notes: also called compound No. 19
IC50 Ratio (vs PYY(3-36)) (human Y2 receptor [1]): 45 ratio | GBA EC50 Ratio (vs PYY(3-36)), [35S]GTPγS (human Y2 receptor [2]): 25 ratio

B7: 4-Aminomethylbenzoyl-[Ala26, Trp28, Ile31]-PYY(25-36) (peptide)
peptide: [4Amb]RAYWNLITRQRY-NH2
modifications: N-terminus assumed
SMILES: CC[C@H](C)[C@H](NC(=O)[C@H](CC(C)C)NC(=O)[C@H](CC(N)=O)NC(=O)[C@H](Cc1c[nH]c2ccccc12)NC(=O)[C@H](Cc1ccc(O)cc1)NC(=O)[C@H](C)NC(=O)[C@H](CCCNC(=N)N)NC(=O)c1ccc(CN)cc1)C(=O)N[C@H](C(=O)N[C@@H](CCCNC(=N)N)C(=O)N[C@@H](CCC(N)=O)C(=O)N[C@@H](CCCNC(=N)N)C(=O)N[C@@H](Cc1ccc(O)cc1)C(N)=O)[C@@H](C)O
notes: also called compound No. 23
IC50 Ratio (vs PYY(3-36)) (human Y2 receptor [1]): 3.4 ratio | GBA EC50 Ratio (vs PYY(3-36)), [35S]GTPγS (human Y2 receptor [2]): 5 ratio

B8: 4-Aminomethylbenzoyl-[Gly26, Ile28,31]-PYY(25-36) (peptide)
peptide: [4Amb]RGYINLITRQRY-NH2
modifications: N-terminus assumed
SMILES: CC[C@H](C)[C@H](NC(=O)[C@H](Cc1ccc(O)cc1)NC(=O)CNC(=O)[C@H](CCCNC(=N)N)NC(=O)c1ccc(CN)cc1)C(=O)N[C@@H](CC(N)=O)C(=O)N[C@@H](CC(C)C)C(=O)N[C@H](C(=O)N[C@H](C(=O)N[C@@H](CCCNC(=N)N)C(=O)N[C@@H](CCC(N)=O)C(=O)N[C@@H](CCCNC(=N)N)C(=O)N[C@@H](Cc1ccc(O)cc1)C(N)=O)[C@@H](C)O)[C@@H](C)CC
notes: also called compound No. 50
IC50 Ratio (vs PYY(3-36)) (human Y2 receptor [1]): 7.1 ratio | GBA EC50 Ratio (vs PYY(3-36)), [35S]GTPγS (human Y2 receptor [2]): 4.6 ratio

B9: 4-Aminomethylbenzoyl-[Ala26, Ile28, Phe31]-PYY(25-36) (peptide)
peptide: [4Amb]RAYINLFTRQRY-NH2
modifications: N-terminus assumed
SMILES: CC[C@H](C)[C@H](NC(=O)[C@H](Cc1ccc(O)cc1)NC(=O)[C@H](C)NC(=O)[C@H](CCCNC(=N)N)NC(=O)c1ccc(CN)cc1)C(=O)N[C@@H](CC(N)=O)C(=O)N[C@@H](CC(C)C)C(=O)N[C@@H](Cc1ccccc1)C(=O)N[C@H](C(=O)N[C@@H](CCCNC(=N)N)C(=O)N[C@@H](CCC(N)=O)C(=O)N[C@@H](CCCNC(=N)N)C(=O)N[C@@H](Cc1ccc(O)cc1)C(N)=O)[C@@H](C)O
notes: also called compound No. 59
IC50 Ratio (vs PYY(3-36)) (human Y2 receptor [1]): 16 ratio | GBA EC50 Ratio (vs PYY(3-36)), [35S]GTPγS (human Y2 receptor [2]): 6.6 ratio

B10: Ac-[D-Pro24, Cha27,28, Aib31, homoLeu36]-PYY(23-36) (peptide)
peptide: Ac-S[dP]RH[Cha][Cha]NL[Aib]TRQR[hLeu]-NH2
SMILES: CC(=O)N[C@@H](CO)C(=O)N1CCC[C@@H]1C(=O)N[C@@H](CCCNC(=N)N)C(=O)N[C@@H](Cc1c[nH]cn1)C(=O)N[C@@H](CC1CCCCC1)C(=O)N[C@@H](CC1CCCCC1)C(=O)N[C@@H](CC(N)=O)C(=O)N[C@@H](CC(C)C)C(=O)NC(C)(C)C(=O)N[C@H](C(=O)N[C@@H](CCCNC(=N)N)C(=O)N[C@@H](CCC(N)=O)C(=O)N[C@@H](CCCNC(=N)N)C(=O)N[C@@H](CCC(C)C)C(N)=O)[C@@H](C)O
notes: also called compound No. 199
IC50 Ratio (vs PYY(3-36)) (human Y2 receptor [1]): 20 ratio | GBA EC50 Ratio (vs PYY(3-36)), [35S]GTPγS (human Y2 receptor [2]): 8.5 ratio

B11: Ac-[D-Pro24, Cha27,28, Aib31, Leu(Me)36]-PYY(23-36) (peptide)
peptide: Ac-S[dP]RH[Cha][Cha]NL[Aib]TRQR[tBuAla]-NH2
SMILES: CC(=O)N[C@@H](CO)C(=O)N1CCC[C@@H]1C(=O)N[C@@H](CCCNC(=N)N)C(=O)N[C@@H](Cc1c[nH]cn1)C(=O)N[C@@H](CC1CCCCC1)C(=O)N[C@@H](CC1CCCCC1)C(=O)N[C@@H](CC(N)=O)C(=O)N[C@@H](CC(C)C)C(=O)NC(C)(C)C(=O)N[C@H](C(=O)N[C@@H](CCCNC(=N)N)C(=O)N[C@@H](CCC(N)=O)C(=O)N[C@@H](CCCNC(=N)N)C(=O)N[C@@H](CC(C)(C)C)C(N)=O)[C@@H](C)O
notes: also called compound No. 198
IC50 Ratio (vs PYY(3-36)) (human Y2 receptor [1]): 12 ratio | GBA EC50 Ratio (vs PYY(3-36)), [35S]GTPγS (human Y2 receptor [2]): 7.1 ratio
